Laboratory results published in patent US20230242922.

Key:
Assay in all cases: cell_activity
[1] = test system: T1, AN197 TALEN pair (synthetic construct); settings: primary T cells, GCD
T1 sequence: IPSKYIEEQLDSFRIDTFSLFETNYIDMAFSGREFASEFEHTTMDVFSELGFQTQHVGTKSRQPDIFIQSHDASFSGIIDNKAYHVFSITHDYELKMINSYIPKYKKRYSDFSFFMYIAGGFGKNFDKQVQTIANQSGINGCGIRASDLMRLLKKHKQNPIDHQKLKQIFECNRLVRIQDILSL

[2] = test system: T2, AN197 TALEN, purified, mPEG-5K-SH PEGylated (synthetic construct); settings: HEK293FT
T2 sequence: T1 sequence

[3] = target: FokI TALEN pair (Flavobacterium okeanokoites) (UniProt P14870); settings: by Sanger sequencing
UniProt P14870, sequence (P14870 384-579): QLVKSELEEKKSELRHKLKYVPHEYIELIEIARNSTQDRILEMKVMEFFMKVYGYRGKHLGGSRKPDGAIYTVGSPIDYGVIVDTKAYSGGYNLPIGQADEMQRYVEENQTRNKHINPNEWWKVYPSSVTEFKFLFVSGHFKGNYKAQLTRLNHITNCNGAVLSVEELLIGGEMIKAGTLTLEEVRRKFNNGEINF

| Substance | activity [1] | activity [2] | activity [3] |
| --- | --- | --- | --- |
| TIM3 target | > 80 % editing | – | – |
| LAG3 target | > 80 % editing | – | – |
| B2M target | > 80 % editing | – | – |
| PD-1 target | > 80 % editing | – | – |
| AAVS1 locus TALEN target | > 80 % editing | < 75 % editing | 100 % editing |
